The source of these data is patent publication US20100233173A1 (AstraZeneca / MedImmune, published 2010).

The target in the test is T1, EphA2 (human, UniProt P29317 25-534, limits assumed).
T1 construct: also called biotinylated EphA2; soluble EphA2 antigen
Put plainly: BIAcore, ovalbumin immobilised, antigens injected one after the other. Here is the method:
FIG. 36. […] The upper curve represents the binding activity of three distinct epitope binding domains present on multispecific epitope binding protein “P1” represented in FIG. […]. Soluble EB, EA, and EphA2 antigens were added to immobilized P1 and the relative binding was measured. The three distinct inflections referenced by the arrows corresponding to the three antigens indicates binding to the immobilized P1. Ovalbumin (bottom curve) was used as a negative control.
Methods: Triple-specific binding ability of P1 (FIG. 3D) was assessed by BIAcore by injecting the three antigens EB, EA and EphA2 sequentially over a P1-coated chip. When the P1 epitope had been saturated with the first antigen (EB), the second antigen (EA) was injected, followed by the injection of the third antigen (EphA2). Ovalbumin was used as a negative binding control.

T1 sequence (P29317 25-534 limits assumed): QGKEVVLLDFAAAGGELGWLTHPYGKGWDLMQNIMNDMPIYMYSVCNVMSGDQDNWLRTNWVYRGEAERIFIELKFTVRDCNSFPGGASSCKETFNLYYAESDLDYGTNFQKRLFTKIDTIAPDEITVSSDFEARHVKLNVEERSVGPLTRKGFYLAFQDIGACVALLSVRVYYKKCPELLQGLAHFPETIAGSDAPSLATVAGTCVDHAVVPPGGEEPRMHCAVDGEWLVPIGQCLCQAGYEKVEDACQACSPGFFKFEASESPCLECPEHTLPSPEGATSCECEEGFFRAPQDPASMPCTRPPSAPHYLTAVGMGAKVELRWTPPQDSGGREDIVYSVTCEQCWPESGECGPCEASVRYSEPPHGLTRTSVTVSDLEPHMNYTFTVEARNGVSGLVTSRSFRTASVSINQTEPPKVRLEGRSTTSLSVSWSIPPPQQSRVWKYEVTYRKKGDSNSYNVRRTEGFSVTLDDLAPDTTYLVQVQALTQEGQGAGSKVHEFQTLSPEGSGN

B1: Ovalbumin (other, UniProt P01012 2-386, looked up)
chain: GSIGAASMEFCFDVFKELKVHHANENIFYCPIAIMSALAMVYLGAKDSTRTQINKVVRFDKLPGFGDSIEAQCGTSVNVHSSLRDILNQITKPNDVYSFSLASRLYAEERYPILPEYLQCVKELYRGGLEPINFQTAADQARELINSWVESQTNGIIRNVLQPSSVDSQTAMVLVNAIVFKGLWEKAFKDEDTQAMPFRVTEQESKPVQMMYQIGLFRVASMASEKMKILELPFASGTMSMLVLLPDEVSGLEQLESIINFEKLTEWTSSNVMEERKIKVYLPRMKMEEKYNLTSVLMAMGITDVFSSSANLSGISSAESLKISQAVHAAHAEINEAGREVVGSAEAGVDAASVSEEFRADHPFLFCIKHIATNAVLFFGRCVSP
notes: also called immobilized ovalbumin
Turning to B1, the binding result was “no binding”.
